# From patent US20250145684A1 (IMMATICS BIOTECHNOLOGIES, published 2025)
# Target: T1, HLA-B*08:01 (human)
# T1 construct: MHC monomer first loaded with a UV-sensitive peptide that is cleaved by UV light and exchanged for the test peptide
# Test: UV peptide exchange ELISA
# Procedure, shortened: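 Peptide–MHC complexes formed by UV-mediated exchange of a photocleavable ligand; exchange yield assessed by ELISA on streptavidin-coated plates, samples diluted 100-fold. Bound complexes detected with HRP anti-β2m and TMB at 450 nm against HLA-A*02:01 monomer standards (15–500 ng/ml).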
row,Binder,peptide exchange yield [%]
1,HPRLKVNLL [HPRLKVNLL (SEQ ID NO: 76)],50 to 75
2,GLARIYSF [GLARIYSF (SEQ ID NO: 79)],20 to 50
3,SIRKRPML [SIRKRPML (SEQ ID NO: 82)],20 to 50
4,SIKKELVVL [SIKKELVVL (SEQ ID NO: 61)],20 to 50
5,HIRIKHTF [HIRIKHTF (SEQ ID NO: 71)],50 to 75
6,NLLMRNVL [NLLMRNVL (SEQ ID NO: 65)],20 to 50
7,MLHIKKAEV [MLHIKKAEV (SEQ ID NO: 60)],50 to 75
8,DGHMKVFSL [DGHMKVFSL (SEQ ID NO: 78)],20 to 50
9,FILGREAGAL [FILGREAGAL (SEQ ID NO: 64)],20 to 50
10,ELARQRLL [ELARQRLL (SEQ ID NO: 69)],20 to 50
11,YITRQFVQF [YITRQFVQF (SEQ ID NO: 84)],20 to 50
12,DLKIPRYPV [DLKIPRYPV (SEQ ID NO: 68)],50 to 75
13,FMLAKEASL [FMLAKEASL (SEQ ID NO: 62)],20 to 50
14,EVYLRMYQL [EVYLRMYQL (SEQ ID NO: 80)],50 to 75
15,FVRPKLVTI [FVRPKLVTI (SEQ ID NO: 8)],50 to 75
16,MYRKEQYL [MYRKEQYL (SEQ ID NO: 81)],20 to 50
17,FVLLRSVDL [FVLLRSVDL (SEQ ID NO: 83)],50 to 75
18,YARLKNVLL [YARLKNVLL (SEQ ID NO: 75)],50 to 75
19,NRQKRFVL [NRQKRFVL (SEQ ID NO: 6)],20 to 50
20,AARLRPAL [AARLRPAL (SEQ ID NO: 7)],20 to 50

# Other lines, results leading:
row,peptide exchange yield [%],Binder
1,50 to 75,LPKLPVPPL [LPKLPVPPL (SEQ ID NO: 77)]
2,20 to 50,RPKGTPPL [RPKGTPPL (SEQ ID NO: 70)]
3,20 to 50,RPIHHPLVL [RPIHHPLVL (SEQ ID NO: 86)]
4,20 to 50,YVKRKTNVL [YVKRKTNVL (SEQ ID NO: 63)]
5,20 to 50,DLKKTRVL [DLKKTRVL (SEQ ID NO: 66)]
6,50 to 75,RLKLRYEGL [RLKLRYEGL (SEQ ID NO: 74)]
7,20 to 50,MFPARGVPL [MFPARGVPL (SEQ ID NO: 73)]
8,50 to 75,LPLAHHIQL [LPLAHHIQL (SEQ ID NO: 72)]
9,20 to 50,QKPRKKKL [QKPRKKKL (SEQ ID NO: 85)]
10,20 to 50,DMNTKRAIHTL [DMNTKRAIHTL (SEQ ID NO: 67)]
